Measurements reported in US20250276077A1, “EPHA2 ANTIBODIES” (Immunome, Inc., priority 2022, published 2025).

Molecular target: T1, human 4-1BB (Homo sapiens, UniProt Q07011)
T1 construct: host or cells: 4-1BB reporter cells of the Promega bioassay, alone or co-cultured with tumor cells (A549, MDA-MB-231, CT26, PC3, SKOV3)
Experiment: 4-1BB activation, inducible reporter cell system with or without tumor cells
Type: cell-based
Details: reporter cells alone or co-cultured with A549 tumor cells; 5 hours
Procedure: After confirming that they retained the ability to bind to PC3 cells, the EphA2-4-1BB bispecific antibodies were assayed for their ability to activate human 4-1BB using an inducible reporter cell system (Promega cat JA2351). […] reporter cells were either cultured alone with the EphA2-4-1BB bispecific antibodies or co-cultured with A549 tumor cells that had been treated with the EphA2-4-1BB bispecific antibodies. The 4-1BB antibody Urelumab (AB-009811) was included as a non-tumor targeting control. After 5 hours of culture, 4-1BB activation was determined from the reporter cells by measuring bioluminescence output.
The activation assay was repeated using MDA-MB-231, CT26, or PC3 tumor cells. […] FIG. 19A-D.
Constructs that comprise AB-008873 fused with h41BBL (THD)3-2 were generated and assayed for the ability to activate 4-1BB for tumor cell lines A549, MDA-MB231, SKOV3, and PC3, as described above for the EphA2-4-1BB bispecific antibodies. AB-009811 was included as a positive control and 5554-41BBL (THD) 3-10 or 5554-41BBL (THD) 3-2 was used as a negative control. […] FIG. 19E.

T1 sequence (Q07011 24-255): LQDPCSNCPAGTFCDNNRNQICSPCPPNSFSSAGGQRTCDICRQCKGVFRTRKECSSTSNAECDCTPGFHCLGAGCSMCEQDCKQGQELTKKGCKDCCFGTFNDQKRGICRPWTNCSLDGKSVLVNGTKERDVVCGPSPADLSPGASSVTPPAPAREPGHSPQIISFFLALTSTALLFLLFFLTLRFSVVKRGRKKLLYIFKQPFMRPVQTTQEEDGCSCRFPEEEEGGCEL

## Urelumab: 4-1BB antibody included as a non-tumor targeting control
  4-1BB activation with and without tumor cells: activated 4-1BB with us without the presence of tumor cells
